The target in test [1] is Trastuzumab light chain Q38E_Q124E_Q160E_T180E. Put plainly: SMCA: H1, H2, L1, L2 co-expressed in CHO-3E7, protein A purified, LC-MS; competing light chain m14.
For test [2] the target is unchanged. The experiment in a line: SMCA: H1, H2, L1, L2 co-expressed in CHO-3E7, protein A purified, LC-MS; competing light chain m12; against wild-type bispecific.
Test [3] shares this target. Put plainly: SMCA: H1, H2, L1, L2 co-expressed in CHO-3E7, protein A purified, LC-MS; competing light chain m12.
For test [4] the target is unchanged. The experiment in a line: SMCA: H1, H2, L1, L2 co-expressed in CHO-3E7, protein A purified, LC-MS; competing light chain m14; against wild-type bispecific.
Test [5] concerns the target D3H44 light chain Q124R_T178R. The experiment in a line: SMCA: H1, H2, L1, L2 co-expressed in CHO-3E7, protein A, LC-MS; competitor light chain m24.
Test [6] addresses D3H44 light chain Q124R_T178R. The experiment in a line: SMCA: H1, H2, L1, L2 co-expressed in CHO-3E7, protein A, LC-MS; competitor light chain m34.
Test [7] addresses D3H44 light chain Q124R_T178R. Put plainly: SMCA, LC-MS; change vs wild-type bispecific; competing light chain m30.
Test [8] concerns the target D3H44 light chain Q124R_T178R. The experiment in a line: SMCA, LC-MS; change vs wild-type bispecific; competing light chain m25.
In test [9] the target is D3H44 light chain Q124R_T178R. Put plainly: SMCA, LC-MS of 4 co-expressed chains; competing light chain m30.
For test [10], the target named is D3H44 light chain Q124R_T178R. The experiment in a line: SMCA, LC-MS of 4 co-expressed chains; competing light chain m25.
Test [11] deals with Cetuximab light chain Q124E_Q160E_T180E. The experiment in a line: SMCA, LC-MS; change vs wild-type bispecific; competing light chain m15.
Test [12] concerns the target Cetuximab light chain Q124E_L135W_Q160E_T180E. Put plainly: SMCA, LC-MS; change vs wild-type bispecific; competing light chain m12.
The target in test [13] is Trastuzumab light chain Q38R_Q124R_Q160K_T178R. The experiment in a line: SMCA: H1, H2, L1, L2 co-expressed in CHO-3E7, protein A purified, LC-MS; competing light chain m16.
Test [14] has as its target D3H44 light chain Q124E_Q160E_T180E. Put plainly: SMCA, LC-MS; change vs wild-type bispecific; competing light chain m31.
Test [15] shares this target. Put plainly: SMCA, LC-MS; change vs wild-type bispecific; competing light chain m48.
The target is the same in test [16]. The experiment in a line: SMCA, LC-MS of 4 co-expressed chains; competing light chain m31.
Test [17] deals with D3H44 light chain Q124E_L135W_Q160E_T180E. The experiment in a line: SMCA, LC-MS; change vs wild-type bispecific; competing light chain m28.
Test [18] addresses D3H44 light chain Q124E_Q160E_T180E. Put plainly: SMCA, LC-MS of 4 co-expressed chains; competing light chain m48.
Test [19] deals with D3H44 light chain Q124E_L135W_Q160E_T180E. Put plainly: SMCA: H1, H2, L1, L2 co-expressed in CHO-3E7, protein A, LC-MS; competitor light chain m32.
Test [20] addresses D3H44 light chain Q124E_Q160E_T180E. The experiment in a line: SMCA: H1, H2, L1, L2 co-expressed in CHO-3E7, protein A, LC-MS; competitor light chain m37.
Test [21] concerns the target D3H44 light chain Q124E_L135W_Q160E_T180E. Put plainly: SMCA, LC-MS of 4 co-expressed chains; competing light chain m28.
The target in test [22] is Cetuximab light chain Q38E_Q124E_Q160E_T180E. The experiment in a line: SMCA: H1, H2, L1, L2 co-expressed in CHO-3E7, protein A purified, LC-MS; competing light chain m14; against wild-type bispecific.
Test [23] has as its target D3H44 light chain Q38R_Q124R_Q160K_T178R. The experiment in a line: SMCA: 2 heavy + 2 light chains co-expressed, protein A, LC-MS; competing light chain m20.
The target is the same in test [24]. The experiment in a line: SMCA: H1, H2, L1, L2 co-expressed in CHO-3E7, protein A purified, LC-MS; competing light chain m16.
Test [25] has the same target. The experiment in a line: SMCA: H1, H2, L1, L2 co-expressed in CHO-3E7, protein A purified, LC-MS; competing light chain m16; against wild-type bispecific.
Test [26] has the same target. Put plainly: SMCA: H1, H2, L1, L2 co-expressed in CHO-3E7, protein A purified, LC-MS; competing light chain m18; against wild-type bispecific.
For test [27] the target is unchanged. Put plainly: SMCA: H1, H2, L1, L2 co-expressed in CHO-3E7, protein A purified, LC-MS; competing light chain m18.
The target in test [28] is Cetuximab light chain F116C_Q124R_T178R. Put plainly: SMCA, LC-MS; change vs wild-type bispecific; competing light chain m14.
Test [29] shares this target. The experiment in a line: SMCA: H1, H2, L1, L2 co-expressed in CHO-3E7, protein A purified, LC-MS; competing light chain m6; against wild-type bispecific.
Test [30] concerns the target D3H44 light chain F116C_Q124R_T178R. Put plainly: SMCA, LC-MS; change vs wild-type bispecific; competing light chain m32.
The target is the same in test [31]. The experiment in a line: SMCA, LC-MS of 4 co-expressed chains; competing light chain m32.
Test [32] has the same target. The experiment in a line: SMCA: 2 heavy + 2 light chains co-expressed, protein A, LC-MS; competing light chain m12.
The target in test [33] is D3H44 light chain Q38E_Q124E_Q160E_T180E. Put plainly: SMCA: H1, H2, L1, L2 co-expressed in CHO-3E7, protein A purified, LC-MS; competing light chain m12.
For test [34] the target is unchanged. The experiment in a line: SMCA: H1, H2, L1, L2 co-expressed in CHO-3E7, protein A, LC-MS; competitor light chain m47.
For test [35] the target is unchanged. Put plainly: SMCA: H1, H2, L1, L2 co-expressed in CHO-3E7, protein A purified, LC-MS; competing light chain m12; *** estimated change against a similar wild-type construct.
The target of test [36] is D3H44 light chain Q124E_V133E. Put plainly: SMCA, LC-MS of 4 co-expressed chains; competing light chain m26.
The target of test [37] is D3H44 light chain Q124E_V133E. Put plainly: SMCA, LC-MS of 4 co-expressed chains; competing light chain m42.
Test [38] deals with D3H44 light chain Q124E_V133E. The experiment in a line: SMCA: LC-MS of protein A purified product after co-expression of H1, H2, L1, L2 in CHO-3E7; competing light chain m52.
Test [39] addresses D3H44 light chain Q124E_V133E. Put plainly: SMCA: 2 heavy + 2 light chains co-expressed, protein A, LC-MS; competing light chain m45.
Test [40] has as its target D3H44 light chain Q124E_V133E. Put plainly: SMCA, LC-MS; change vs wild-type bispecific; competing light chain m42.
Test [41] concerns the target D3H44 light chain Q124E_V133E. The experiment in a line: SMCA, LC-MS; estimated change vs similar wild type (***); competing light chain m26.
In test [42] the target is tissue factor (TF) antigen (UniProt P13726). Put plainly: SPR (ProteOn), Fab captured via anti-penta-His, TF injected, 1:1 fit; estimated (*) from a Fab differing only in L chain tag.
For test [43] the target is unchanged. The experiment in a line: SPR (ProteOn), Fab captured via anti-penta-His, TF injected, 1:1 fit.
For test [44] the target is unchanged. The experiment in a line: SPR (ProteOn), Fab captured via anti-penta-His, TF injected, 1:1 fit; reference wild-type D3H44 Fab.
Test [45] has the same target. The experiment in a line: SPR (ProteOn), Fab captured via anti-penta-His, TF injected, 1:1 fit; reference wild-type D3H44 Fab; estimated (*) from a Fab differing only in L chain tag.
The target in test [46] is Cetuximab light chain Q38R_Q124R_Q160K_T178R. Put plainly: SMCA: H1, H2, L1, L2 co-expressed in CHO-3E7, protein A purified, LC-MS; competing light chain m10; *** estimated change against a similar wild-type construct.
The target is the same in test [47]. Put plainly: SMCA: H1, H2, L1, L2 co-expressed in CHO-3E7, protein A purified, LC-MS; competing light chain m18; against wild-type bispecific.
For test [48] the target is unchanged. The experiment in a line: SMCA: H1, H2, L1, L2 co-expressed in CHO-3E7, protein A purified, LC-MS; competing light chain m18.

Substance “Trastuzumab heavy chain Q39R_H172R_Q179K (from UniProt P0DOX5 2-448)” yielded a % H2L2 Pairing (over all H2 species) in test [1] of 100%. In test [2], this substance showed a Change in % H1L1 Pairing (over all H1 species) with respect to wild type of 6%. Also, the % H1L1 Pairing (over all H1 species) in [3] is 100%. The Change in % H2L2 Pairing (over all H2 species) with respect to wild type in test [4] stood at 7%.
Take “D3H44 heavy chain L143E_K145T_Q179E (from UniProt P0DOX5 2-448)”: the % H1L1 Pairing (over all H1 species) in [5], in test [6], in [9] and in [10] was 100% throughout. Besides, the Change in % H1L1 Pairing (over all H1 species) with respect to wild type in test [7] and in [8] was 38.1% in each case.
On to Cetuximab heavy chain Q179K, for which the Change in % H2L2 Pairing (over all H2 species) with respect to wild type in [11] turned out to be 0%; in test [12] it was 1.7%.
The substance “Trastuzumab heavy chain Q39E_L143E_K145T_Q179E (from UniProt P0DOX5 2-448)” returned a % H1L1 Pairing (over all H1 species) in test [13] of 100%.
With “D3H44 heavy chain Q179K (from UniProt P0DOX5 2-448)”, the figures for the Change in % H1L1 Pairing (over all H1 species) with respect to wild type in [14], in test [15] and in [17] were 52.5%, 62.7% and 38.1%, respectively. The % H1L1 Pairing (over all H1 species) in test [16], in [18], in test [19], in test [20] and in test [21] was 100% throughout.
In the case of Cetuximab heavy chain Q39R_H172R_Q179K, the Change in % H2L2 Pairing (over all H2 species) with respect to wild type in test [22] amounted to 0.6%.
For “D3H44 heavy chain Q39E_L143E_K145T_Q179E (from UniProt P0DOX5 2-448)”, the % H1L1 Pairing (over all H1 species) in [23] was 100%; in [24], 100%; in test [27], 86.6%. The Change in % H1L1 Pairing (over all H1 species) with respect to wild type was found to be 38.1% in [25] and 46% in [26].
As for “Cetuximab heavy chain A139C_L143E_K145T_Q179E”, the Change in % H2L2 Pairing (over all H2 species) with respect to wild type in test [28] stood at 0%; in test [29], 3%.
Regarding “D3H44 heavy chain A139C_L143E_K145T_Q179E (from UniProt P0DOX5 2-448)”, the Change in % H1L1 Pairing (over all H1 species) with respect to wild type in test [30] turned out to be 38.1%. Further, the % H1L1 Pairing (over all H1 species) in [31] and in [32] was 100% in each case.
On to “D3H44 heavy chain Q39R_H172R_Q179K (from UniProt P0DOX5 2-448)”, for which the % H1L1 Pairing (over all H1 species) in [33] and in test [34] was 100% in each case. Also, the Change in % H1L1 Pairing (over all H1 species) with respect to wild type in test [35] is 43.3%.
In the case of “D3H44 heavy chain L143R (from UniProt P0DOX5 2-448)”, the % H1L1 Pairing (over all H1 species) turned out to be 100% in test [36], 97.1% in test [37], 100% in [38] and 100% in test [39]. The Change in % H1L1 Pairing (over all H1 species) with respect to wild type is 59.8% in test [40] and 43.3% in test [41].
By Kd is commonly meant the equilibrium constant for the complex coming apart. Regarding “D3H44 Fab heterodimer (H1L1) of LCCA Sets # 9683, 9684: H1 L143E_K145T_Q179E, L1 T178R”, the Kd in test [42] and in test [43] was 0.3 nM each time. The change in median KD compared to wild type, -(log(KD design)-log(KD wt)) in test [44] and in [45] was -0.28 throughout.
Take “Cetuximab heavy chain Q39E_L143E_K145T_Q179E”: the values for the Change in % H2L2 Pairing (over all H2 species) with respect to wild type in test [46] and in test [47] were 1.6% and 22.7%, respectively. The same substance yielded a % H2L2 Pairing (over all H2 species) in test [48] of 52.3%.

The record behind these values is US11306156.
